Reference: patent US20220242906A1
Each block holds one binder with its values, some of them ahead of it.

Biological target: elongation initiation factor 4E (eIF4E), P06730
Assay: SPR (Biacore T100), eIF4E immobilised on CM5 chip, peptide as analyte
Conditions: remark: other sources report otherwise

Sequence of elongation initiation factor 4E (eIF4E), P06730 (P06730 2-217 limits assumed): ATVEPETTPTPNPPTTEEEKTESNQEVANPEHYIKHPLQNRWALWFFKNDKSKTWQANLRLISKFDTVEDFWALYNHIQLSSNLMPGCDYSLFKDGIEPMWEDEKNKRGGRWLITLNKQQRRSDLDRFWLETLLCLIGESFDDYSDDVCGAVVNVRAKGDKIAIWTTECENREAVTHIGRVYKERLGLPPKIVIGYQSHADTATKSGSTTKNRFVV

Kd: 11 µM
B1: EE-2A (peptide)
peptide: ACAMGFFQDCG
HELM: PEPTIDE1{A.C.A.M.G.F.F.Q.D.C.G.[am]}$PEPTIDE1,PEPTIDE1,2:R3-10:R3$$$V2.0
SMILES: CSCC[C@@H]1NC(=O)[C@H](C)NC(=O)[C@@H](NC(=O)[C@H](C)N)CSSC[C@@H](C(=O)NCC(N)=O)NC(=O)[C@H](CC(=O)O)NC(=O)[C@H](CCC(N)=O)NC(=O)[C@H](Cc2ccccc2)NC(=O)[C@H](Cc2ccccc2)NC(=O)CNC1=O

Kd: 32 µM
B2: EE-2C (peptide)
peptide: ACEMAFFQDCG
HELM: PEPTIDE1{A.C.E.M.A.F.F.Q.D.C.G.[am]}$PEPTIDE1,PEPTIDE1,2:R3-10:R3$$$V2.0
SMILES: CSCC[C@@H]1NC(=O)[C@H](CCC(=O)O)NC(=O)[C@@H](NC(=O)[C@H](C)N)CSSC[C@@H](C(=O)NCC(N)=O)NC(=O)[C@H](CC(=O)O)NC(=O)[C@H](CCC(N)=O)NC(=O)[C@H](Cc2ccccc2)NC(=O)[C@H](Cc2ccccc2)NC(=O)[C@H](C)NC1=O
